Source: the RNAGym collection of RNA variant scans (doi:10.1021/acssynbio.7b00057)

B1: Pistol ribozyme (parent)
chain: GGGUCGUUGUUCCAUAAUCGCGUGGAUAUGGCACGCAAGUUUCUACCGGGCACCGUAAAUGUCCGACUGGAGCCGUUCGGGCGGCUAUAAACAGACCUCAGGCCCGAAGCGUGGCGGCACCUGCCGCCGGUGGUAAAAAAGAUCGGAAGAGCACACGUCU

Variants of: B1
Assay: aptazyme ON/OFF ratio, guanine; higher = stronger switching; co-transcriptional cleavage with and without guanine

Variant | aptazyme ON/OFF ratio
U8C G9U U10A C12A C13A | 1.17
U8C G9U U10A C12A C13U | 1.13
U8C G9U C12A C13A | 1.28
U8C G9U C12A C13U | 1.19
U8C G9U C12A C13G | 1.12
U8C G9U U10A U11C C12A C13A | 1.33
U8C G9U U10A U11C C12A C13U | 1.24
U8C G9U U10A U11C C12A C13G | 1.08
U8C U10A U11C C12U | 1.02
U8C U10A U11C C12G | 1.17
U8C U10A U11C C12A | 1.08
U8C U10A U11G C12G | 1.31
U8C U10A U11G C12A | 1.06
U8C U10A U11G C12U | 1.33
U8C G9U U10G U11G C12G | 1.18
U8C G9U U10G U11G C12A | 1.22
U8C G9U U10G U11G C12U | 1.12
U8C G9U U11A C12U C13G | 1.12
U8C G9U U11A C12U C13A | 1.36
U8C G9U U11A C12U C13U | 1.17
U8C G9U U10G U11A C13G | 1.13
U8C G9U U10G U11A C13A | 1.1
U8C G9U U10G U11A C13U | 1.14
U8C G9U U10G C12A C13A | 1.48

Variant | aptazyme ON/OFF ratio
U8C G9U U10G C12A C13G | 1.13
U8C G9U U10G C12A C13U | 1.57
U8C G9U U10G C13A | 1.42
U8C G9U U10G C13U | 1.67
U8C G9U U10G C13G | 1.21
U8C G9U U11C C13U | 1.01
U8C G9U U11C C13G | 1.03
U8C G9U U11C C13A | 1.03
U8C G9U U10A U11C C12G | 1.21
U8C G9U U10A U11C C12U | 1.11
U8C G9U U10A U11C C12A | 1.37
U8C G9U U10C U11A C12G | 1.17
U8C G9U U10C U11A C12U | 1.17
U8C G9U U10C U11A C12A | 1.15
U8C G9U U11C C12G | 1.24
U8C G9U U11C C12A | 1.12
U8C G9U U11C C12U | 1.09
U8C U10A U11A C12A | 1.17
U8C U10A U11A C12G | 1.28
U8C U10A U11A C12U | 1.22
U8C G9U U10G C12G C13A | 1.3
U8C G9U U10G C12G C13G | 1.21
U8C G9U U10G C12G C13U | 1.3
U8C G9U U11C C12G C13A | 1.13

Variant | aptazyme ON/OFF ratio
U8C G9U U11C C12G C13U | 1.15
U8C G9U U11C C12G C13G | 1.03
U8C G9U U10G U11A C12U C13U | 1.31
U8C G9U U10G U11A C12U C13G | 1.16
U8C G9U U10G U11A C12U C13A | 1.24
U8C G9U U10A U11G C13G | 1.11
U8C G9U U10A U11G C13A | 1.2
U8C G9U U10A U11G C13U | 1.32
U8C G9U U10A C13U | 1.37
U8C G9U U10A C13A | 1.29
U8C G9U U10A C13G | 1.06
U8C G9U U10A U11C C13A | 1.09
U8C G9U U10A U11C C13G | 1.06
U8C G9U U10A U11C C13U | 1.02
U8C G9U U10C U11C C12U C13U | 1.07
U8C G9U U10C U11C C12U C13G | 1.05
U8C G9U U10C U11C C12U C13A | 1.07
U8C U10A C12A | 1.29
U8C U10A C12G | 1.21
U8C U10A C12U | 1.1
U8C U10A | 1.1
U8C G9U U10A U11G C12G | 1.23
U8C G9U U10A U11G C12A | 1.07
U8C G9U U10A U11G C12U | 1.43

Variant | aptazyme ON/OFF ratio
U8C G9U U10C U11G C13G | 1.2
U8C G9U U10C U11G C13A | 1.23
U8C G9U U10C U11G C13U | 1.28
U8C G9U U10C U11G C12U | 1.22
U8C G9U U10C U11G C12G | 1.12
U8C G9U U10C U11G C12A | 1.07
U8C G9U U10G U11A C12G C13G | 1.33
U8C G9U U10G U11A C12G C13U | 1.12
U8C G9U U10G U11A C12G C13A | 1.16
U8C G9U U10C C12U C13G | 1.07
U8C G9U U10C C12U C13U | 1.16
U8C G9U U10C C12U C13A | 1.06
U8C G9U U10G U11C C12G | 1.19
U8C G9U U10G U11C C12U | 1.04
U8C G9U U10G U11C C12A | 1.62
U8C U10A U11A C13U | 1.21
U8C U10A U11A C13A | 1.17
U8C U10A U11A C13G | 1.22
U8C U10A C12G C13G | 1.14
U8C U10A C12G C13A | 1.17
U8C U10A C12G C13U | 1.26
U8C U10A U11G C13A | 1.3
U8C U10A C12U C13U | 1.32
U8C U10A C12U C13A | 1.14

Variant | aptazyme ON/OFF ratio
U8C U10A C12U C13G | 1.11
U8C G9U U10G U11C C12G C13A | 1.22
U8C G9U U10G U11C C12G C13U | 1.2
U8C G9U U10G U11C C12G C13G | 1.26
U8C G9U U11A C13A | 1.27
U8C G9U U11A C13U | 1.33
U8C G9U U11A C13G | 1.03
U8C G9C U11G C13A | 1.09
U8C G9C U11G C13G | 1.19
U8C G9C U11G C13U | 1.1
U8C U10A U11C C12U C13A | 1.06
U8C U10A U11C C12U C13G | 1.07
U8C U10A U11C C12U C13U | 1.06
U8C G9U | 2.46
U8C G9C U11G C12U C13U | 1.1
U8C G9C U11G C12U C13G | 1.11
U8C G9C U11G C12U C13A | 1.09
U8C G9U U10G U11C C12A C13U | 1.52
U8C G9U U10G U11C C12A C13A | 1.22
U8C G9U U10G U11C C12A C13G | 1.19
U8C G9U U10C C13U | 1.27
U8C G9U U10C C13G | 1.04
U8C G9U U10C C13A | 1.03
U8C G9U U10G U11C C13G | 1.04

Variant | aptazyme ON/OFF ratio
U8C G9U U10G U11C C13A | 1.24
U8C G9U U10G U11C C13U | 1.11
U8C G9U U10C U11G C12G C13U | 1.07
U8C G9U U10C U11G C12G C13A | 1.11
U8C G9U U10C U11G C12G C13G | 1.15
U8C G9U U10C U11C C12G | 1.09
U8C G9U U10C U11C C12U | 1.06
U8C G9U U10C U11C C12A | 1.03
U8C U10A C13A | 1.07
U8C U10A C13G | 1.05
U8C U10A C13U | 1.05
U8C G9U U10G | 2.84
U8C G9U U10A | 1.42
U8C G9U U10C | 1.87
U8C G9U U10C U11A C13A | 1.13
U8C G9U U10C U11A C13G | 1.05
U8C G9U U10C U11A C13U | 1.16
U8C G9C U11G C12G C13G | 1.12
U8C G9C U11G C12G C13U | 1.09
U8C G9C U11G C12G C13A | 1.12
U8C G9U U11C C12A C13G | 1.04
U8C G9U U11C C12A C13A | 1.11
U8C G9U U11C C12A C13U | 1.18
U8C G9U U10A U11C C12G C13G | 1.28

Variant | aptazyme ON/OFF ratio
U8C G9U U10A U11C C12G C13U | 1.31
U8C G9U U10A U11C C12G C13A | 1.25
U8C G9U U10C U11A C12A C13U | 1.11
U8C G9U U10C U11A C12A C13G | 1.08
U8C G9U U10C U11A C12A C13A | 1.09
U8C G9U C13U | 1.27
U8C G9U C13G | 1.03
U8C G9U C13A | 1.08
U8C G9U U10A U11G C12U C13G | 1.14
U8C G9U U10A U11G C12U C13U | 1.2
U8C G9U U10A U11G C12U C13A | 1.12
U8C G9U U10A C12U C13G | 1.2
U8C G9U U10A C12U C13U | 1.09
U8C G9U U10A C12U C13A | 1.18
U8C G9U U10A U11A C12A C13A | 1.28
U8C G9U U10A U11A C12A C13G | 1.1
U8C G9U U10A U11A C12A C13U | 1.33
U8C G9U U11G C12A C13U | 1.26
U8C G9U U11G C12A C13G | 1.18
U8C G9U U11G C12A C13A | 1.16
U8C G9U U10C C12G C13A | 1.12
U8C G9U U10C C12G C13G | 1.19
U8C G9U U10C C12G C13U | 1.24
